# B1: Agmatinase from Escherichia coli (enzyme)
# chain: MSTLGHQYDNSLVSNAFGFLRLPMNFQPYDSDADWVITGVPFDMATSGRAGGRHGPAAIRQVSTNLAWEHNRFPWNFDMRERLNVVDCGDLVYAFGDAREMSEKLQAHAEKLLAAGKRMLSFGGDHFVTLPLLRAHAKHFGKMALVHFDAHTDTYANGCEFDHGTMFYTAPKEGLIDPNHSVQIGIRTEFDKDNGFTVLDACQVNDRSVDDVIAQVKQIVGDMPVYLTFDIDCLDPAFAPGTGTPVIGGLTSDRAIKLVRGLKDLNIVGMDVVEVAPAYDQSEITALAAATLALEMLYIQAAKKGE
# notes: Agmatinase (EcAGM), Escherichia coli; wild type; gene cloned into pQE60; residues 11 to 26 of the N-terminal end are modeled in the structure; The hexamer (dimer of trimers) is built by crystal symmetry: 7LOL has one chain and 7LOX three chains in the asymmetric unit; also called EcAGM; E. coli AGM; source: E. coli BL21(DE3), purified (HisTrap HP, S-200 size exclusion)
# Biological target: the molecule itself
# Experiment: crystal structure; sitting drop vapor diffusion at 18 °C; protein 12 mg/mL in 25 mM Tris-HCl pH 8.0, 2 mM MnCl2, 100 mM guanidine chloride; two crystal forms (7LOL at 1.8 Å, 7LOX at 3.2 Å); oligomeric state analysed with PISA
protein,measurement,value
B1,stoichiometry N,6

# Reference: article PMC8125230, “Crystal Structure of Escherichia coli Agmatinase: Catalytic Mechanism and Residues Relevant for Substrate Specificity” (International Journal of Molecular Sciences, 2021)
